# Molecular target: the molecule itself
# Test: SEC; Superdex 200 Increase 10/300 GL, 20 mM Tris-HCl (pH 8.0), 200 mM NaCl; molecular weight assessed against standard molecular markers
protein,measurement,value
"human TRF1(3-439) (natural protein, UniProt P54274 3-439, looked up, also called TRF1 dimer; source: E. coli BL21(DE3), purified (Ni-NTA, 3C protease, HiTrap Heparin, Superdex 200)) EDVSSAAPSPRGCADGRDADPTEEQMAETERNDEEQFECQELLECQVQVGAPEEEEEEEEDAGLVAEAEAVAAGWMLDFLCLSLCRAFRDGRSEDFRRTRNSAEAIIHGLSSLTACQLRTIYICQFLTRIAAGKTLDAQFENDERITPLESALMIWGSIEKEHDKLHEEIQNLIKIQAIAVCMENGNFKEAEEVFERIFGDPNSHMPFKSKLLMIISQKDTFHSFFQHFSYNHMMEKIKSYVNYVLSEKSSTFLMKAAAKVVESKRTRTITSQDKPSGNDVEMETEANLDTRKSVSDKQSAVTESSEGTVSLLRSHKNLFLSKLQHGTQQQDLNKKERRVGTPQSTKKKKESRRATESRIPVSKSQPVTPEKHRARKRQAWLWEEDKNLRSGVRKYGEGNWSKILLHYKFNNRTSVMLKDRWRTMKKLKLISSDSED",stoichiometry N,2

# — article PMC7826288, “Dynamics of TRF1 organizing a single human telomere” (Nucleic Acids Research, 2020)
